The target in experiment [1] is T1, human SLC34A2 (human, UniProt O95436 1-690).
T1 sequence (looked up): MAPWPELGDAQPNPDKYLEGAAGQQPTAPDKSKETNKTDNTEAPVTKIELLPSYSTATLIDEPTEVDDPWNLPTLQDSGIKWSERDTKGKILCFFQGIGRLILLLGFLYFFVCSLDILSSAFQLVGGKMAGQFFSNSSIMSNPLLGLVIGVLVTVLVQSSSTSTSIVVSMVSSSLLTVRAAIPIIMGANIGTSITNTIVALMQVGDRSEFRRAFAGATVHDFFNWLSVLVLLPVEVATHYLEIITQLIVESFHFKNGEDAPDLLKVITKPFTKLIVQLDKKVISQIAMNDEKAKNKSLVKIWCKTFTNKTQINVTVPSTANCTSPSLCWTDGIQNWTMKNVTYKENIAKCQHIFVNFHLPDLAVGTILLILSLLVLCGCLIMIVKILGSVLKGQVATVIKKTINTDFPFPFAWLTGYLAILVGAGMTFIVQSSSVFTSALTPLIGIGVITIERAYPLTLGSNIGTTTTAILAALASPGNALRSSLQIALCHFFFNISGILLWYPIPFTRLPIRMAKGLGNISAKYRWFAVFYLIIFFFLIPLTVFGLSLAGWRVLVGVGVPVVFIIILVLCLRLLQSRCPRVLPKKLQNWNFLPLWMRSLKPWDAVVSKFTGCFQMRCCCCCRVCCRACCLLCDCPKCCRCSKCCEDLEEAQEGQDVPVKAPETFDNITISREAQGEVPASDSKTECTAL
The experiment can be described thus: FACS, OVCAR3 cells. (In general: In flow cytometry, cells or beads pass a laser one at a time.)

Experiment [2] addresses T1, human SLC34A2. Kind of experiment: FACS, OVCAR3 cells.
For experiment [3], the target named is T1, human SLC34A2. The experiment can be described thus: cell-based or functional assay.
Experiment [4] has as its target T2, Rhesus SLC34A2 (Rhesus, UniProt F7HDA3 1-690).
T2 construct: whole, on cells
T2 sequence: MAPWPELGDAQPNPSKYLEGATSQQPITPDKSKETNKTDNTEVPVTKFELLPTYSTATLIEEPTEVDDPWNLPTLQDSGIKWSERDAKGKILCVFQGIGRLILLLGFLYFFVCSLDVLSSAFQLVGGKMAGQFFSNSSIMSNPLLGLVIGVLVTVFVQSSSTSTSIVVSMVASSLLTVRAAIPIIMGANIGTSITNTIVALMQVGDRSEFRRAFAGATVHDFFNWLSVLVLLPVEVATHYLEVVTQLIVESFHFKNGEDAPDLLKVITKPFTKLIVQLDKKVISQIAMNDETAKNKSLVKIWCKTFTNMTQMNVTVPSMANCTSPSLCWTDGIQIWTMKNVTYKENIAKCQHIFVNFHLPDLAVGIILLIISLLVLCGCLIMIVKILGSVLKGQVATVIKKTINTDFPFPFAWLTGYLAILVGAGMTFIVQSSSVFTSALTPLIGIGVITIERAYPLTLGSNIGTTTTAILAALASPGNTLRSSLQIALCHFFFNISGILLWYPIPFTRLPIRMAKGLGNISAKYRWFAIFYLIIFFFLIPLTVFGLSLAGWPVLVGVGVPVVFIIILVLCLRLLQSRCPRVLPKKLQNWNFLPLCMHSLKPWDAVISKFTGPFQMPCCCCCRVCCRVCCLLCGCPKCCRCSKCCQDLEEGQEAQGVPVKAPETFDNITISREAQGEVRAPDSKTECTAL
Kind of experiment: FACS, HEK293/Rhesus SLC34A2 cells.

Experiment [5] addresses T1, human SLC34A2. Kind of experiment: FACS, HEK293/human SLC34A2 cells. The method in brief:
(§1)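 Humanized antibodies were incubated with HEK293/H_SLC34A2, OVCAR3 or RMG-1 cells at 4° C. for 60 minutes. Cells were washed twice with FACS buffer, stained with fluorescent secondary antibody at 4° C. for 30 minutes, washed twice more and analyzed by flow cytometry.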

Experiment [6] has as its target T1, human SLC34A2. Kind of experiment: FACS, RMG-1 cells. The method in brief:
as §1

For experiment [7], the target named is T1, human SLC34A2. The experiment can be described thus: FACS, HEK293/human SLC34A2 cells. As for the experimental part:
The PTM-derisked VH chains were first tested for their impact on target binding. Cell based binding of PTM Abs on human SLC34A2 expressing cells were assessed using flow cytometry. Briefly, the HEK293/H_SLC34A2 cells were incubated with PTM Abs (from 200 nM, 4 folds dilution, 8 points). After incubation at 4° C. for 60 minutes, the cells were washed with FACS buffer twice, then stained with fluorescent conjugated secondary antibody at 4° C. for 30 minutes. After that the cells were washed twice and analyzed by flow cytometry.
The source holds these as a separate data set.

For experiment [8], the target named is T1, human SLC34A2. Kind of experiment: FACS, OVCAR3 cells. This is another data set of the same source.
In experiment [9] the target is T2, Rhesus SLC34A2. The experiment can be described thus: FACS, HEK293/Rhesus SLC34A2 cells. The source holds these as a separate data set.
Experiment [10] deals with T1, human SLC34A2. The experiment can be described thus: FACS, OVCAR3 cells. The essentials: as §1
The source holds these as a separate data set.

The target of experiment [11] is T1, human SLC34A2. Kind of experiment: FACS, OVCAR3 cells. This is another data set of the same source.

Read-outs that look alike come from different tables or passages of the source.

As for hIgG1 Isotype (antibody), in the experiment with human SLC34A2 [1], the concentration for a half-maximal effect (EC50) is 2900 nM and the Top (MFI) was found to be 1570 MFI.

B1: 91C9F1.p1 hIgG1 (antibody, V domains shown)
VH: EVQLQQSGPELVKPGTSVKISCKTSGFFFTEYIIHWVKQSHGRSLEWIGGIIPNNDVTNYKQNFRGKAALTADKSSNTAYMELRSLTSEDSAVYYCARWRNAYYSAMDSWGQGTSVTVSS
VL: DIVVTQSHKFMSTSLGDRVSITCTASQDVGTAVAWYQQKPGHSPKLLIYWASTRHTGVPERFTGSGSGTDFTLTITNVQSEDLADYFCQQYRTSPLTFGVGTKLELK
notes: PTM-derisked chimeric, hIgG1; also called 91C9F1.pl hIgG1
With B1, the EC50 was found to be 1 nM in the experiment with human SLC34A2 [2]; 0.8 nM in the experiment with Rhesus SLC34A2 [4]; 2.29 nM with human SLC34A2 [5]; 1.09 nM with human SLC34A2 [6]; 0.68 nM with human SLC34A2 [7]; 2.29 nM in the experiment with human SLC34A2 [8]. Besides, the EC50 with Rhesus SLC34A2 [9] was determined as 2.8 nM; in the experiment with human SLC34A2 [10], 1.1 nM. For the same molecule, the “Top (MFI)” value amounted to 63500 MFI with human SLC34A2 [2]; 7970 MFI in the experiment with Rhesus SLC34A2 [4]; 28200 MFI with human SLC34A2 [7]; 32300 MFI with human SLC34A2 [8]; 26400 MFI in the experiment with Rhesus SLC34A2 [9]. The “ADCC reporter EC50” value in the experiment with human SLC34A2 [3] came out at 3.31 nM. The “ADCC reporter Top (MFI)” value with human SLC34A2 [3] was 143000 MFI. The Top with human SLC34A2 [5] came to 32300 MFI; in the experiment with human SLC34A2 [6] it was 9690 MFI; with human SLC34A2 [10], 19500 MFI.

B2: 63A11D5B4 VH_P1/VL hIgG1 (antibody, V domains shown)
VH: QVQLQQPGAELVKPGASVKMSCRTSGYTFITYNMHWVKQTPGQGREWIGAIYPGSGDTSYNQKFKGKATLTADKSSSTAYMQLNSLTSEDSAVYYCSISTIITTGAVDYWGQGTSVTVAS
VL: DIVMTQSHKFMSTSVGDRVSITCKASQDVGTAVAWYQQKAGQSPKLLIYWTSTRHTGVPDRFTGSGSGTDFTLIIRSLQSEDLADYFCQQYSRIPLTFGSGTKLEIK
notes: PTM-derisked chimeric, hIgG1; that P1 is the SG version follows from the humanized .p1 chains; also called 63A11D5B4.p1 hIgG1
B2: the EC50 came out at 7.5 nM with human SLC34A2 [2]; 0.7 nM with Rhesus SLC34A2 [4]; 2.79 nM in the experiment with human SLC34A2 [5]; 12.5 nM with human SLC34A2 [6]; 1.48 nM with human SLC34A2 [7]; 3.9 nM with Rhesus SLC34A2 [9]. Besides, the concentration giving a half-maximal response (EC50) with human SLC34A2 [10] and in the experiment with human SLC34A2 [11] was 4.03 nM throughout. For the same molecule, the “Top (MFI)” value amounted to 75200 MFI in the experiment with human SLC34A2 [2]; 13800 MFI in the experiment with Rhesus SLC34A2 [4]; 30400 MFI with human SLC34A2 [7]; 39400 MFI with Rhesus SLC34A2 [9]; 28200 MFI in the experiment with human SLC34A2 [11]. For the same molecule, in the experiment with human SLC34A2 [3], the “ADCC reporter EC50” value is 2.83 nM. Also, the “ADCC reporter Top (MFI)” value in the experiment with human SLC34A2 [3] came to 114000 MFI. Moreover, the Top with human SLC34A2 [5] was determined as 35600 MFI; in the experiment with human SLC34A2 [6], 11700 MFI.

What is called EC50 is the midpoint of the concentration-response curve. A higher EC50 goes with lower potency in that assay.

The values above are taken from US20240301052A1 (LANOVA MEDICINES DEVELOPMENT, published 2024).
